Key:
Assay in all cases: co-IP with anti-FLAG, mass spectrometry; lysate of cells with N-FLAG B3GNT2
RPL9 = RPL9 (human, UniProt P32969 1-192)
Protocol: (§1) Cells were plated in 10-cm cell culture dishes and grown to 60-80% confluency. For each condition, two biological replicates were harvested for co-IP. Cells were washed with PBS and 4 mL of lysis buffer (20 mM HEPES, 1% Triton X-100, 150 mM NaCl, 1 mM EDTA, and 10% glycerol) containing protease inhibitor cocktail was added. Cells were scraped and lysate was incubated at 4° C. under rotary agitation for 1 h. Lysate was centrifuged at 14,000×g for 10 min at 4° C. Supernatant was transferred to a new tube and an aliquot was taken as the input. […] For Western blots, 10 μg/mL Chicken Anti-FLAG (Aves labs ET-DY100) and IgY control (R&D Systems AB-101-C) antibodies were biotinylated (Thermo Fisher Scientific 90407) and added to the respective conditions. Lysates with antibodies were incubated at 4° C. under rotary agitation overnight. For each mL of lysate, 50 μL of Pierce Protein A/G Magnetic Beads (Mass spectrometry; Thermo Fisher Scientific 88803) or Pierce Streptavidin Magnetic Beads (Western blot; Thermo Fisher Scientific 88817) was washed twice with lysis buffer. Lysates with antibodies were added to the beads and incubated at 4° C. under rotary agitation for 4 h. Beads were washed with lysis buffer 3 times and resuspended in lysis buffer for storage.
(§2) Magnetic beads were resuspended in 100 mM Tris pH 7.8, reduced, alkylated and digested with trypsin at 37° ° C. overnight. This solution was subjected to solid phase extraction to concentrate the peptides and remove unwanted reagents followed by injection onto a Shimadzu HPLC with fraction collector. Eight fractions were collected and after concentration were injected on a Waters NanoAcquity HPLC equipped with a self-packed Aeris 3 μm C18 analytical column 0.075 mm by 20 cm, (Phenomenex). Peptides were eluted using standard reverse-phase gradients. The effluent from the column was analyzed using a Thermo Orbitrap Elite mass spectrometer (nanospray configuration) operated in a data dependent manner for 54 minutes. The resulting fragmentation spectra were correlated against the known database using Proteome Discover 1.4 (Thermo Fisher Scientific).

CCT2 = biological target: T1, CCT2 (human, UniProt P78371-2 1-488, limits assumed)
T1 construct: also called NP_001185771.1 (+1)
T1 sequence (looked up): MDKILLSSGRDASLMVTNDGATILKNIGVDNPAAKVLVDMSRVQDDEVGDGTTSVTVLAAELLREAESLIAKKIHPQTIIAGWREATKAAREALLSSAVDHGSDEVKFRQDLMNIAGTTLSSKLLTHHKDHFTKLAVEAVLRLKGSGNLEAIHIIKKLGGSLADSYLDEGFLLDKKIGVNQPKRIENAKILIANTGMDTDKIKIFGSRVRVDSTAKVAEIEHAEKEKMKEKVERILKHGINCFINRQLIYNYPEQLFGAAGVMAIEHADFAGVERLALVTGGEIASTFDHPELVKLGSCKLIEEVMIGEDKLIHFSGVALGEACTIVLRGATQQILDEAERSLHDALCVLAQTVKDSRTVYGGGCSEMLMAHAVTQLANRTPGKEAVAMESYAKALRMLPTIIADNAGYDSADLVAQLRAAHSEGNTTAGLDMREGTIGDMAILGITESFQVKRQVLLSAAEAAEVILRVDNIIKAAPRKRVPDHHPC
Protocol: as §1, §2

SLC27A4 = biological target: T2, SLC27A4 (human, UniProt Q6P1M0 1-643)
T2 construct: also called NP_005085.2
T2 sequence (Q6P1M0 whole entry): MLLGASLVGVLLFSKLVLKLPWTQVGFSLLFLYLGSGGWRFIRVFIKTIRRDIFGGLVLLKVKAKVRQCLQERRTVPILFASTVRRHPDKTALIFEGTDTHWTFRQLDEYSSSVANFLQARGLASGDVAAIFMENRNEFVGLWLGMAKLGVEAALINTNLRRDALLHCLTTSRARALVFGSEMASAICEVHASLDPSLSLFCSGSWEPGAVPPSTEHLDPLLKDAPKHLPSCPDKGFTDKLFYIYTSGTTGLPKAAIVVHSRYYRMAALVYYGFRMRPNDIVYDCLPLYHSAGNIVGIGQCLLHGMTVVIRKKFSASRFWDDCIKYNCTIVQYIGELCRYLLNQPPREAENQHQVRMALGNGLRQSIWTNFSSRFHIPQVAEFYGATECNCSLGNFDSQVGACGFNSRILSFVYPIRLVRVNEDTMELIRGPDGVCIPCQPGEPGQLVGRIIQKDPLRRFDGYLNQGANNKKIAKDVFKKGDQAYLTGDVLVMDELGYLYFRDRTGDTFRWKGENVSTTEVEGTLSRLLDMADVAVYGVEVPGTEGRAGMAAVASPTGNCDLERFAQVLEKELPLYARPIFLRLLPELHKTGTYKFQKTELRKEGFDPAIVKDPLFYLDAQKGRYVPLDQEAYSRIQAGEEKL
Protocol: as §1, §2

RARS = biological target: T3, RARS (human, UniProt P54136 1-660)
T3 construct: also called NP_002878.2
T3 sequence (looked up): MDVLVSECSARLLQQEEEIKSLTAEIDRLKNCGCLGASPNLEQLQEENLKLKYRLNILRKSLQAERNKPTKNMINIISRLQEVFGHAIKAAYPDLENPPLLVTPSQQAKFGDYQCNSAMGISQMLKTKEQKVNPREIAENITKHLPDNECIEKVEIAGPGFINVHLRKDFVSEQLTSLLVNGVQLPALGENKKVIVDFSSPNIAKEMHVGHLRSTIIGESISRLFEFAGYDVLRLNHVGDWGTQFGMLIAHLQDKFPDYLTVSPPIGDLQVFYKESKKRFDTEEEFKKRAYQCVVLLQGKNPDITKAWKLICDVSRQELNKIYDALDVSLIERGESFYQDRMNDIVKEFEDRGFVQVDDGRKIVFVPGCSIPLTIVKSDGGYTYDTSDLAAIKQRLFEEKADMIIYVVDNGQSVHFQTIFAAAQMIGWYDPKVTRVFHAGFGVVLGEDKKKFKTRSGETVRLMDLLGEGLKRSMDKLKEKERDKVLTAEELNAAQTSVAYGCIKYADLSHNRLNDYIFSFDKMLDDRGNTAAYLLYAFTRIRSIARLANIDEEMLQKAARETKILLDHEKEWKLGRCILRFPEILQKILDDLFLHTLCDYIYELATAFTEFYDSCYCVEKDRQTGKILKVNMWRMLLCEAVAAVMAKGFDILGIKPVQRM
Protocol: as §1, §2

co-IP mass spectrometry count (RPL9): 0
co-IP mass spectrometry count (CCT2): 0
co-IP mass spectrometry count (SLC27A4): 0
co-IP mass spectrometry count (RARS): 0
B1: N-terminal FLAG tagged B3GNT2 (enzyme, human, UniProt Q9NY97 1-397, looked up)
chain: MSVGRRRIKLLGILMMANVFIYFIMEVSKSSSQEKNGKGEVIIPKEKFWKISTPPEAYWNREQEKLNRQYNPILSMLTNQTGEAGRLSNISHLNYCEPDLRVTSVVTGFNNLPDRFKDFLLYLRCRNYSLLIDQPDKCAKKPFLLLAIKSLTPHFARRQAIRESWGQESNAGNQTVVRVFLLGQTPPEDNHPDLSDMLKFESEKHQDILMWNYRDTFFNLSLKEVLFLRWVSTSCPDTEFVFKGDDDVFVNTHHILNYLNSLSKTKAKDLFIGDVIHNAGPHRDKKLKYYIPEVVYSGLYPPYAGGGGFLYSGHLALRLYHITDQVHLYPIDDVYTGMCLQKLGLVPEKHKGFRTFDIEEKNKNNICSYVDLMLVHSRKPQEMIDIWSQLQSAHLKC
notes: Bait of the co-IP; pulled down with mouse anti-FLAG (Millipore Sigma F3165) from cell lysate; also called N-FLAG B3GNT2; N-term FLAG; not shown: N-terminal FLAG tag

Source: patent US20240261333A1 (published 2024)
